In the supplement of paper PMC10567573:

B1: ZNF449 (parent)
chain: TLHQRTHTEERPFKCNYCGKSFRQ

Variants of: B1
Assay: protein stability index of a GFP-peptide fusion (GPS, HEK-293T) (PSI 1-6); higher = more stable
Settings: c terminus: a fixed tail appended
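Note: lentivirally expressed fusions sorted by FACS into six bins by GFP to DsRed ratio, PSI derived from sequencing read proportions per bin multiplied by bin number.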

Row | Variant | protein stability index
1 | TLHQRTHTEERPFKCNYCGFSFRQ | 1.78
2 | TLHQRTHTEERPFKCNYCGCSFRQ | 1.86
3 | TLHQRTHTEERPFKCNYCGTSFRQ | 2.58
4 | TLHQRTHTEERPFKCNYCGASFRQ | 1.97
5 | TLHQRTHTEERPFKCNYCGSSFRQ | 2.12
6 | TLHQRTHTEERPFKCNYCGWSFRQ | 1.88
7 | TLHQRTHTEERPFKCNYCGQSFRQ | 1.82
8 | TLHQRTHTEERPFKCNYCGISFRQ | 2.1
9 | TLHQRTHTEERPFKCNYCGVSFRQ | 2.41
10 | TLHQRTHTEERPFKCNYCGESFRQ | 1.79
11 | TLHQRTHTEERPFKCNYCGMSFRQ | 2.79
12 | TLHQRTHTEERPFKCNYCGPSFRQ | 2.31
13 | TLHQRTHTEERPFKCNYCGGSFRQ | 1.61
14 | TLHQRTHTEERPFKCNYCGDSFRQ | 2.83
15 | TLHQRTHTEERPFKCNYCGRSFRQ | 3.28
16 | TLHQRTHTEERPFKCNYCGHSFRQ | 1.91
17 | TLHQRTHTEERPFKCNYCGYSFRQ | 1.9
18 | TLHQRTHTEERPFKCNYCGNSFRQ | 2.37
19 | TLHQRTHTEERPFKCNYCGLSFRQ | 2.07
20 | TLHQRTHTEERPFKCNRCGKSFRQ | 2.92
21 | TLHQRTHTEERPFKCNKCGKSFRQ | 2.67
22 | TLHQRTHTEERPFKCNICGKSFRQ | 2.14
23 | TLHQRTHTEERPFKCNCCGKSFRQ | 2
24 | TLHQRTHTEERPFKCNPCGKSFRQ | 2.98

Row | Variant | protein stability index
25 | TLHQRTHTEERPFKCNVCGKSFRQ | 2.32
26 | TLHQRTHTEERPFKCNMCGKSFRQ | 2.4
27 | TLHQRTHTEERPFKCNLCGKSFRQ | 2.15
28 | TLHQRTHTEERPFKCNECGKSFRQ | 2.3
29 | TLHQRTHTEERPFKCNFCGKSFRQ | 2.22
30 | TLHQRTHTEERPFKCNDCGKSFRQ | 2.09
31 | TLHQRTHTEERPFKCNSCGKSFRQ | 2.55
32 | TLHQRTHTEERPFKCNTCGKSFRQ | 2.62
33 | TLHQRTHTEERPFKCNACGKSFRQ | 1.93
34 | TLHQRTHTEERPFKCNNCGKSFRQ | 3.21
35 | TLHQRTHTEERPFKCNQCGKSFRQ | 3.16
36 | TLHQRTHTEERPFKCNWCGKSFRQ | 2.61
37 | TLHQRTHTEERPFKCNYCGKSFRF | 2.56
38 | TLHQRTHTEERPFKCNYCGKSFRD | 2.24
39 | TLHQRTHTEERPFKCNYCGKSFRI | 1.68
40 | TLHQRTHTEERPFKCNYCGKSFRA | 2.55
41 | TLHQRTHTEERPFKCNYCGKSFRG | 2.62
42 | TLHQRTHTEERPFKCNYCGKSFRL | 2.36
43 | TLHQRTHTEERPFKCNYCGKSFRC | 1.84
44 | TLHQRTHTEERPFKCNYCGKSFRH | 2.12
45 | TLHQRTHTEERPFKCNYCGKSFRE | 2.88
46 | TLHQRTHTEERPFKCNYCGKSFRM | 2.77
47 | TLHQRTHTEERPFKCYYCGKSFRQ | 2.61
48 | TLHQRTHTEERPFKCTYCGKSFRQ | 2.67

Row | Variant | protein stability index
49 | TLHQRTHTEERPFKCIYCGKSFRQ | 2.27
50 | TLHQRTHTEERPFKCHYCGKSFRQ | 1.93
51 | TLHQRTHTEERPFKCLYCGKSFRQ | 1.85
52 | TLHQRTHTEERPFKCCYCGKSFRQ | 1.73
53 | TLHQRTHTEERPFKCRYCGKSFRQ | 1.65
54 | TLHQRTHTEERPFKCDYCGKSFRQ | 2.16
55 | TLHQRTHTEERPFKCQYCGKSFRQ | 2.98
56 | TLHQRTHTEERPFKCFYCGKSFRQ | 2.75
57 | TLHQRTHTEERPFKCAYCGKSFRQ | 2.44
58 | TLHQRTHTEERPFKCEYCGKSFRQ | 2.13
59 | TLHQRTHTEERPFKCWYCGKSFRQ | 2.04
60 | TLHQRTHTEERPFKCVYCGKSFRQ | 2.86
61 | TLHQRTHTEERPFKCGYCGKSFRQ | 1.95
62 | TLHQRTHTEERPFKCMYCGKSFRQ | 2.1
63 | TLHQRTHTEERPFKCPYCGKSFRQ | 3.32
64 | TLHQRTHTEERPFKCKYCGKSFRQ | 2.76
65 | TLHQRTHTEERPFKCSYCGKSFRQ | 3.03
66 | TLHQRTHTEERPFKCNYCGKSFFQ | 2.21
67 | TLHQRTHTEERPFKCNYCGKSFSQ | 2.67
68 | TLHQRTHTEERPFKCNYCGKSFMQ | 2.8
69 | TLHQRTHTEERPFKCNYCGKSFQQ | 2.16
70 | TLHQRTHTEERPFKCNYCGKSFEQ | 3.53
71 | TLHQRTHTEERPFKCNYCGKSFKQ | 2.97
72 | TLHQRTHTEERPFKCNYCGKSFYQ | 2.72

Row | Variant | protein stability index
73 | TLHQRTHTEERPFKCNYCGKSFIQ | 3.2
74 | TLHQRTHTEERPFKCNYCGKSFNQ | 2.35
75 | TLHQRTHTEERPFKCNYCGKSFAQ | 2.69
76 | TLHQRTHTEERPFKCNYCGKSFHQ | 2.79
77 | TLHQRTHTEERPFKCNYCGKSFTQ | 2.7
78 | TLHQRTHTEERPFKCNYCGKSFWQ | 2.29
79 | TLHQRTHTEERPFKCNYCGKSFCQ | 4.7
80 | TLHQRTHTEERPFKCNYCGKSFPQ | 2.58
81 | TLHQRTHTEERPFKCNYCGKSFLQ | 2.4
82 | TLHQRTHTEERPFKCNYCGKSFVQ | 2.15
83 | TLHQRTHTEERPFKCNYCGKSFGQ | 2.27
84 | TLHQRTHTEERPFKCNYCGKSFDQ | 3
85 | TLHQRTHTEERPFKCNYCFKSFRQ | 2.38
86 | TLHQRTHTEERPFKCNYCVKSFRQ | 2.09
87 | TLHQRTHTEERPFKCNYCSKSFRQ | 2.06
88 | TLHQRTHTEERPFKCNYCNKSFRQ | 2.48
89 | TLHQRTHTEERPFKCNYCCKSFRQ | 2.38
90 | TLHQRTHTEERPFKCNYCLKSFRQ | 2.72
91 | TLHQRTHTEERPFKCNYCRKSFRQ | 2.6
92 | TLHQRTHTEERPFKCNYCTKSFRQ | 2.4
93 | TLHQRTHTEERPFKCNYCEKSFRQ | 2.68
94 | TLHQRTHTEERPFKCNYCKKSFRQ | 2.79
95 | TLHQRTHTEERPFKCNYCHKSFRQ | 2.92
96 | TLHQRTHTEERPFKCNYCYKSFRQ | 2.7

Row | Variant | protein stability index
97 | TLHQRTHTEERPFKCNYCIKSFRQ | 3.3
98 | TLHQRTHTEERPFKCNYCMKSFRQ | 2.73
99 | TLHQRTHTEERPFKCNYCWKSFRQ | 1.97
100 | TLHQRTHTEERPFKCNYCPKSFRQ | 2.67
101 | TLHQRTHTEERPFKCNYCDKSFRQ | 3.4
102 | TLHQRTHTEERPFKCNYCAKSFRQ | 2.14
103 | TLHQRTHTEERPFKCNYCQKSFRQ | 2.96
104 | TLHQRTHTEERPFKCNYCGKSHRQ | 3.05
105 | TLHQRTHTEERPFKCNYCGKSVRQ | 3.59
106 | TLHQRTHTEERPFKCNYCGKSPRQ | 3.03
107 | TLHQRTHTEERPFKCNYCGKSTRQ | 2.49
108 | TLHQRTHTEERPFKCNYCGKSDRQ | 3.12
109 | TLHQRTHTEERPFKCNYCGKSKRQ | 3.37
110 | TLHQRTHTEERPFKCNYCGKSRRQ | 1.48
111 | TLHQRTHTEERPFKCNYCGKSCRQ | 3.22
112 | TLHQRTHTEERPFKCNYCGKSLRQ | 1.82
113 | TLHQRTHTEERPFKCNYCGKSQRQ | 2.88
114 | TLHQRTHTEERPFKCNYCGKSARQ | 3.02
115 | TLHQRTHTEERPFKCNYCGKSNRQ | 3.51
116 | TLHQRTHTEERPFKCNYCGKSERQ | 3.02
117 | TLHQRTHTEERPFKCNYCGKSYRQ | 2.35
118 | TLHQRTHTEERPFKCNYCGKSSRQ | 2.85
119 | TLHQRTHTEERPFKCNYCGKSWRQ | 1.74
120 | TLHQRTHTEERPFKCNYCGKSIRQ | 2.02

Row | Variant | protein stability index
121 | TLHQRTHTEERPFKCNYCGKSGRQ | 2.35
122 | TLHQRTHTEERPFKCNYCGKSMRQ | 2.28
123 | TLHQRTHTEERPFKCNYCGKIFRQ | 2.26
124 | TLHQRTHTEERPFKCNYCGKHFRQ | 2.58
125 | TLHQRTHTEERPFKCNYCGKAFRQ | 1.92
126 | TLHQRTHTEERPFKCNYCGKTFRQ | 2.91
127 | TLHQRTHTEERPFKCNYCGKDFRQ | 2.75
128 | TLHQRTHTEERPFKCNYCGKMFRQ | 2.19
129 | TLHQRTHTEERPFKCNYCGKGFRQ | 1.82
130 | TLHQRTHTEERPFKCNYCGKWFRQ | 2.29
131 | TLHQRTHTEERPFKCNYCGKNFRQ | 2.69
132 | TLHQRTHTEERPFKCNYCGKQFRQ | 2.27
133 | TLHQRTHTEERPFKCNYCGKFFRQ | 1.68
134 | TLHQRTHTEERPFKCNYCGKCFRQ | 2.02
135 | TLHQRTHTEERPFKCNYCGKEFRQ | 3.13
136 | TLHQRTHTEERPFKCNYCGKVFRQ | 2.29
137 | TLHQRTHTEERPFKCNYCGKLFRQ | 3.6
138 | TLHQRTHTEERPFKCNYCGKRFRQ | 2.38
139 | TLHQRTHTEERPFKCNYCGKKFRQ | 2.32
140 | TLHQRTHTEERPFKCNYCGKPFRQ | 2.15
141 | TLHQRTHTEERPFNCNYCGKSFRQ | 1.95
142 | TLHQRTHTEERPFWCNYCGKSFRQ | 2.1
143 | TLHQRTHTEERPFTCNYCGKSFRQ | 1.9
144 | TLHQRTHTEERPFLCNYCGKSFRQ | 1.73

Row | Variant | protein stability index
145 | TLHQRTHTEERPFICNYCGKSFRQ | 2.27
146 | TLHQRTHTEERPFMCNYCGKSFRQ | 2.2
147 | TLHQRTHTEERPFPCNYCGKSFRQ | 2.83
148 | TLHQRTHTEERPFYCNYCGKSFRQ | 1.93
149 | TLHQRTHTEERPFHCNYCGKSFRQ | 2.31
150 | TLHQRTHTEERPFQCNYCGKSFRQ | 2.22
151 | TLHQRTHTEERPFSCNYCGKSFRQ | 2.34
152 | TLHQRTHTEERPFKCNYHGKSFRQ | 2.96
153 | TLHQRTHTEERPFKCNYIGKSFRQ | 2.92
154 | TLHQRTHTEERPFKCNYLGKSFRQ | 2.61
155 | TLHQRTHTEERPFKCNYYGKSFRQ | 2.43
156 | TLHQRTHTEERPFKCNYMGKSFRQ | 2.72
157 | TLHQRTHTEERPFKCNYKGKSFRQ | 3.12
158 | TLHQRTHTEERPFKCNYVGKSFRQ | 2.12
159 | TLHQRTHTEERPFKCNYEGKSFRQ | 3.78
160 | TLHQRTHTEERPFKCNYGGKSFRQ | 3.02
161 | TLHQRTHTEERPFKCNYRGKSFRQ | 3.38
162 | TLHQRTHTEERPFKCNYQGKSFRQ | 2.26
163 | TLHQRTHTEERPFKCNYFGKSFRQ | 2.85
164 | TLHQRTHTEERPFKCNYTGKSFRQ | 3.4
165 | TLHQRTHTEERPFKCNYSGKSFRQ | 3.17
166 | TLHQRTHTEERPFKCNYWGKSFRQ | 2.33
167 | TLHQRTHTEERPFKCNYNGKSFRQ | 3.68
168 | TLHQRTHTEERPFKCNYDGKSFRQ | 3.48

Row | Variant | protein stability index
169 | TLHQRTHTEERPFKCNYAGKSFRQ | 3.61
170 | TLHQRTHTEERPFKCNYPGKSFRQ | 2.91
171 | TLHQRTHTEERPFKVNYCGKSFRQ | 2.67
172 | TLHQRTHTEERPFKLNYCGKSFRQ | 1.4
173 | TLHQRTHTEERPFKKNYCGKSFRQ | 3.55
174 | TLHQRTHTEERPFKYNYCGKSFRQ | 3.26
175 | TLHQRTHTEERPFKINYCGKSFRQ | 3.13
176 | TLHQRTHTEERPFKNNYCGKSFRQ | 3.41
177 | TLHQRTHTEERPFKANYCGKSFRQ | 2.49
178 | TLHQRTHTEERPFKMNYCGKSFRQ | 2.82
179 | TLHQRTHTEERPFKGNYCGKSFRQ | 3.43
180 | TLHQRTHTEERPFKPNYCGKSFRQ | 3.1
181 | TLHQRTHTEERPFKTNYCGKSFRQ | 3.29
182 | TLHQRTHTEERPFKDNYCGKSFRQ | 3.87
183 | TLHQRTHTEERPFKWNYCGKSFRQ | 2.59
184 | TLHQRTHTEERPFKQNYCGKSFRQ | 3.37
185 | TLHQRTHTEERPFKRNYCGKSFRQ | 2.61
186 | TLHQRTHTEERPFKSNYCGKSFRQ | 3.7
187 | TLHQRTHTEERPFKHNYCGKSFRQ | 3.4
188 | TLHQRTHTEERPFKFNYCGKSFRQ | 2.98
